Measured values reported in patent US6514942B1, “Methods and compositions for stimulating T-lymphocytes” (The Board of Regents, The University of Texas System, priority 1995, dated 2003).

Columns and labels:
HLA-A2 of T2 cells [1] = target: T1, HLA-A2 of T2 cells (Homo sapiens, UniProt P04439, D140Y/D185E/D98H/E176V/E277Q/G131W/G231S/I119V/I121R/I166T/I218V/L300P/L318F/N151K/N90K/P208A/P217A/Q86G/Q94H/R138H/R169H/T345S); assay: Reactivity of BB7.2 mAb with T2 cells after culture with peptide (immunofluorescence, FL1); assay type: cell-based; details: peptide 50 μg/ml, overnight culture
T1 construct: cell surface expression of HLA-A2 is lower (30-40%) than in normal LBL lines transfected with HLA-A2; endogenous in cells; host or cells: T2 (transport deletion mutant) human lymphoblastoid cells, obtained from Dr. Peter Creswell
Protocol: FIG. 5B. Effects of HER-2 peptides on reactivity of BB7.2 mAb with T2 cells. Studies were performed as described in the legend to FIG. 5A.
(§1) mAbs to CD3 (OKT3-FITC), CD4 (OKT4-FITC) and CD8 (OKT8-FITC) were obtained from Ortho Diagnostic (Ortho, Raritan, N.J.), mAb W6/32 (anti-HLA, -A, -B, -C) from Dako (Dako-Dakopatts, Denmark); HLA-A2 reacting mAb BB7.2 and MA2.1 from ATCC. Immunofluorescence studies were performed as described in Example 1.
(§2) To determine whether these peptides and longer analogs affect HLA-A2 conformation as an indication of HLA-A2 binding, the effects of HER-2 peptides on the reactivity of conformationally dependent mAb MA2.1 and BB.7.2 were examined with HLA-A2 of T2 cells. The human cell line T2 has a defect affecting endogenous peptide loading of MHC class I molecules. As a consequence, cell surface expression of HLA-A2 is lower (30-40%) than in normal LBL lines transfected with HLA-A2 (e.g., C1R) but the reactivity of MA2.1 and BB.7.2 mAb is increased when certain HLA-A2 binding peptides are added to the culture medium (Anderson et al., 1993). Although most human MHC class I molecules cannot be induced at the low temperatures used for their murine counterparts because of fundamental structural differences between human and mouse class I (Anderson et al., 1993), the fact that they express few endogenous (mainly signal) peptides (Zweerink et al., 1993) increases the sensitivity of detection of peptide-HLA-A2 interaction.

HLA-A2 of T2 cells [2] = target: T1, HLA-A2 of T2 cells; assay: Reactivity of MA2.1 mAb with T2 cells after culture with peptide (immunofluorescence, FL1); assay type: cell-based; details: peptide 50 μg/ml, overnight culture in IMDM-FCS
Protocol: FIG. 5A. Effects of HER-2 peptides on reactivity of MA2.1 mAb with T2 cells. Fluorescence analysis and determination of FL1 were performed as described (Stauss et al., 1992). Peptides were added to T2 cells at 50 μg/ml (final concentration). After overnight culture, in IMDM-FCS, cells were washed and the levels of HLA-A2 expression were determined using HLA-A2 specific mAb.
as §1, §2

OVA-31, HER-2high = assay: Lysis of peptide pre-pulsed autologous tumor by CTL-TAL (HLA-A2- system); assay type: cell-based, human; details: OVA-31 pre-pulsed with peptide
Protocol: (§3) Tumor cells and fibroblasts were labeled with 200 μCi of ^51Cr (Na^51CrO4; Amersham, Arlington Heights, Ill.) for 90 min at 37° C. (Ioannides et al., 1991). Lymphoblastoid cells and HLA-A2 transfectants were labeled overnight in RPMI-FCS, then washed three times and incubated with effector cells in RPMI-FCS in an incubator with 5%. CO2 (Bednarek et al., 1991; Gammon et al., 1992). When peptide recognition was determined, targets were incubated with 25 μM of peptides overnight during ^51Cr labeling or with 10 μM peptide for 2 h at 37° C. in RPMI-FCS then washed three times before being incubated with effector cells. Separate controls for spontaneous and total lysis were made for each peptide-pulsed target (Ioannides et al., 1991; Bednarek et al., 1991; Gammon et al., 1992). After 4-5 h, 100 μl of supernatant was collected and counted. To determine maximum lysis in 20-h assays, plates were left undisturbed in the incubator and the supernatant was collected after overnight incubation. For cold target inhibition studies, C1R:A2 cells were preincubated with HER-2 or control peptides overnight, then washed and admixed with ^51Cr-labeled targets at 2:1 and 6:1 (cold:hot targets) ratios. Percentage lysis was calculated from the formula: 100×[(E−S)/(T−S)], where E is experimental release, S is release in the absence of CTL, and T is release in 2 M HCl.
(§4) To address whether these peptides interfere with tumor lysis by autologous tumor reactive CTL-TAL in HLA-A2^− systems, the lysis of OVA-1, HER-2^high (HLA-A1, 24, B8, 35, Cw4) and OVA-31, HER-2^high was determined by pre-pulsing with either C43 or as a control, C44 peptide (VS→II). Target lysis by CTL-1 was: OVA-1 (68%), K562 (18%), OVA-1 plus C43 (37%), and OVA-1 plus C44 (51%). […] However, C43 and C44 had no effect on lysis of OVA-31 by CTL-31.

OVA-1, HER-2high = assay: as above; assay type: cell-based, human; details: OVA-1 pre-pulsed with peptide
Protocol: as §3, §4

Sequence	FL1 of T2 cells stained with BB7.2 mAb (HLA-A2 of T2 cells [1])	FL1 of T2 cells stained with MA2.1 mAb (HLA-A2 of T2 cells [2])	effect on lysis of OVA-31 by CTL-31 (OVA-31, HER-2high)	Target lysis by CTL-1 (OVA-1, HER-2high) [%]	inhibition of lysis of OVA-1 by CTL-1 (OVA-1, HER-2high) [%]
ELVSEFSRV [Peptide C84, HER-2:971-979 analog, Met(P9) substituted by Val]	even higher increase in FL1	significant increase in FL1			
RFRELVSEFSRMAR [Peptide C43, HER-2:968-981 14mer peptide]		failed to significantly increase FL1	no effect	37	45
